Laboratory results reported in patent US20110262929A1 (FORERUNNER PHARMA RESEARCH, published 2011).
Residue numbers refer to the chain shown, from its start.

Tests used:
[1] = target: T1, C-terminal V5 tagged HS6ST2_N-short (HS6ST2_N-short_ctV5), expressed in CHO DG44 cells (human, UniProt Q96MM7 147-605); test: flow cytometry on HS6ST2_N-short_ctV5_CHO cells, antibody 2 µg/mL
T1 construct: also called Q96MM7-2
T1 sequence: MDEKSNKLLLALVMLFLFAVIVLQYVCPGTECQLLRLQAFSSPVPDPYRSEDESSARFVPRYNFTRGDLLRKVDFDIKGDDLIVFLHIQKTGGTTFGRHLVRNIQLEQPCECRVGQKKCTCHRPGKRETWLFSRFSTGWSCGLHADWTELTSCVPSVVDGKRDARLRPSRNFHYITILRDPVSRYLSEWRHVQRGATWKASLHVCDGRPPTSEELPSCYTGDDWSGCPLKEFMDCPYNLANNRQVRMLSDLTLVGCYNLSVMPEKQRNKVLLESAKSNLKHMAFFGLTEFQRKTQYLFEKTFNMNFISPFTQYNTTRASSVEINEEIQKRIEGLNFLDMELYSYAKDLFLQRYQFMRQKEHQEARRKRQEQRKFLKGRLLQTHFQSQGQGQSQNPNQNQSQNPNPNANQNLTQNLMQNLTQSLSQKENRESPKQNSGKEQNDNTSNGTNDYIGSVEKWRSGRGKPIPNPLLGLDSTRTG
Procedure: (§1) Binding of the anti-HS6ST2 antibodies prepared in Example 2 to mHS6ST2 was evaluated by flow cytometry. The cells used were mHS6ST2_ctV5_CHO, HS6ST2_N-short_ctV5_CHO as a positive control, and the CHO DG44 cell line as a negative control.
(§2) Each anti-HS6ST2 antibody or mouse IgG1 (mIgG1, BD Biosciences Pharmingen) as a negative control was added to a final concentration of 2 μg/mL into 96-well U-bottom plates (Becton Dickinson) containing 5×10⁴ cells suspended in PBS (FACS buffer) supplemented with 0.5% bovine serum albumin and 0.1% NaN₃. After reaction on ice for 1 hour, the cells were washed with FACS buffer. Then, an FITC-labeled anti-mouse antibody (Goat F(ab′)₂ Fragment Anti-mouse IgG (H+L)-FITC, Beckman Coulter) was added as a secondary antibody, and the mixture was reacted on ice for 1 hour. The cells were washed with FACS buffer, and then suspended in FACS buffer containing 10 μg/mL propidium iodide (PI) (Sigma) and assayed by a flow cytometer (FACS Calibur, Becton Dickinson). The assay data were analyzed by CELLQuest software (Becton Dickinson), and the geo-mean of FITC fluorescent intensity was calculated for the PI-negative population of viable cells.

[2] = target: T2, C-terminal V5 tagged HS6ST2_N-long (HS6ST2_N-long_ctV5), expressed in CHO DG44 cells (human, UniProt Q96MM7 1-605); test: flow cytometry on HS6ST2_N-long_ctV5_CHO cells
T2 construct: On cells in flow cytometry; also called Q96MM7-1
T2 sequence: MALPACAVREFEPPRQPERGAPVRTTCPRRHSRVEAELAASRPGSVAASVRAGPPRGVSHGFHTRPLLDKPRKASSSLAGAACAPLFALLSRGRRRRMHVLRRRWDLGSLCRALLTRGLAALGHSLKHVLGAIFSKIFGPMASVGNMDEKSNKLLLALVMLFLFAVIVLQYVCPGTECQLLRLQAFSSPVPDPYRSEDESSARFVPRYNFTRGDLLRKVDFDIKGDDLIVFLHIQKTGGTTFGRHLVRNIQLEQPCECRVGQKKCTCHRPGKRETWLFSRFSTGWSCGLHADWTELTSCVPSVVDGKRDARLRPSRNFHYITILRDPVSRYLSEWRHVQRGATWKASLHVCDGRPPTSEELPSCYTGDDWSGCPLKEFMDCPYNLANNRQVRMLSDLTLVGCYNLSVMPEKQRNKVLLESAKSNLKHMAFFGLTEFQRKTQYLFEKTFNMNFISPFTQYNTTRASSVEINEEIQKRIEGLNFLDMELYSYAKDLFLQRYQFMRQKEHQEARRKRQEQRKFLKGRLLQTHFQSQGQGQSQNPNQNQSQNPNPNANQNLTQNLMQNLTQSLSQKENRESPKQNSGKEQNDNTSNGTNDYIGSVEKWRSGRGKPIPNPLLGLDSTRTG
Procedure: as §2
Binding activity of the anti-HS6ST2 antibodies prepared in Example 2 to HS6ST2_N-long was evaluated by flow cytometry. The cells used were HS6ST2_N-long_ctV5_CHO cells and HS6ST2_N-short_{—} ctV5_CHO cells as a positive control, and evaluated in the same manner as in Example 3. The primary antibodies were used at a concentration of 10 μg/mL.

[3] = target: T3, C-terminal V5 tagged mouse HS6ST2 (mHS6ST2_ctV5), expressed in CHO DG44 cells (mouse, UniProt Q80UW0 148-612); test: flow cytometry, antibody diluted 5-fold from 10 µg/mL in 6 steps
T3 construct: also called mHS6ST2_ctV5_CHO; mouse HS6ST2 transcript variant 2
T3 sequence: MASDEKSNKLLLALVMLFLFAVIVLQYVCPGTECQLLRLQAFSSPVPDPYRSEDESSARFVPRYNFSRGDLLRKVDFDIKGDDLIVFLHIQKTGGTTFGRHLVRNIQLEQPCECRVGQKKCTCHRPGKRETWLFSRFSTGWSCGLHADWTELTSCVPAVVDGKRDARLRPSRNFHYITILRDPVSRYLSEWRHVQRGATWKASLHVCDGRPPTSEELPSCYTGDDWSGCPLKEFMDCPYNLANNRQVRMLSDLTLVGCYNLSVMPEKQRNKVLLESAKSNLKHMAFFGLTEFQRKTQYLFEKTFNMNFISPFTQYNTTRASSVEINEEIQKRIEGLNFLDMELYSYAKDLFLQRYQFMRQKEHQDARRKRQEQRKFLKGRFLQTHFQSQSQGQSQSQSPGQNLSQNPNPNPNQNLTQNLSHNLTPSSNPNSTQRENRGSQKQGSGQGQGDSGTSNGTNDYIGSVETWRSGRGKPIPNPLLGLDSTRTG
Procedure: as §1
as §2, with “Each anti-HS6ST2 antibody or mouse IgG1 (mIgG1, BD Biosciences Pharmingen) as a negative control was added to a final concentration of 2 μg/mL into 96-well U-bottom plates (Becton Dickinson) containing 5×10⁴ cells suspended in PBS (FACS buffer) supplemented with 0.5% bovine serum albumin and 0.1% NaN₃.” left out
It was also shown that A6 and C8 equally bind to HS6ST2 and mHS6ST2.

Measured: binding result

B1: anti-HS6ST2 antibody A6 (antibody, mouse IgG1, V domains shown)
VH: EVQLQQSGAELVRSGASVKLSCTASGFNIKDYYMHWVKQRPEQGLEWIGWIDPENDDTEYAPKFQGRATMTADTSSNTAYLQLSSLTSEDTAVYYCNAGYYGSGFAYWGQGTLVTVSA
VL: DIVMTQSPSSLTVTAGEKVTMRCKSSQSLLNSGNQKNYLTWYQQKPGQPPRLLIYWASIRESGVPDRFTGSGSGTDFTLTISSVQAEDLAVYYCQNDYSYPLTFGTGTKLELK
notes: also called clone A6
binds: all assays above

B2: anti-HS6ST2 antibody C8 (antibody, mouse IgG1, V domains shown)
VH: B1 VH with E54D, R67K, Y100N, Y101G, G102N, S103Y, G104W
VL: DVVMTQTPLSLPVSLGDQASISCRSSQSLVHSNGNTYLHWNLQKPGQSPKLLIYKVSNRFSGVPDRFSGSGSGTDFTLKISRVEAEDLGVYFCSQTTLVPYTFGGGTKLEIK
notes: also called clone C8; C8-biotin
binds: all assays above
